Assay results reported in patent US20230146533A1, “KERATIN BD-10, PREPARATION METHOD THEREFOR AND PHARMACEUTICAL COMPOSITION AND USE THEREOF” (INSTITUTE OF MATERIA MEDICA, CHINESE ACADEMY OF MEDICAL …, priority 2019, published 2023).

How the values were obtained:
[1] = system: acetic acid writhing of ICR mice; assay: Acetic acid writhing test in ICR mice; assay type: in vivo; conditions: for Frequency of writhing / Writhing incubation period: observed within 15 minutes
Procedure: Animals: male ICR mice; Drugs and reagents: aspirin, physiological saline, glacial acetic acid, protein BD-10. Experiment grouping: • Model group; • Aspirin 300 mg/kg group; • Protein BD-10, 50 mg/kg group, 200 mg/kg group.
One day after the experimental animals adapt to the environment, Aspirin 300 mg/kg, protein BD-10 50 mg/kg, 200 mg/kg were given orally one hour in advance, and the administration volume was 10 ml/kg; Then, 0.6% acetic acid solution was injected intraperitoneally, and the incubation period (seconds) and frequency of writhing in the animal was observed within 15 minutes.
Calculate the mean and standard error of the data in each group. Compared with the model group by TTEST, P<0.05 was considered as statistically different.

[2] = system: PTZ-induced epilepsy in mice; assay: Pentylenetetrazole (PTZ) induced epilepsy in mice; assay type: in vivo, ICR mice; conditions: for Grade IV seizure rate / mortality rate / Grade III seizure incubation period / Grade IV seizure incubation period / Cases of deaths / Cases of Grade IV: PTZ 65 mg/kg i.p.; for Grade IV seizure rate / mortality rate: 10 mice; for Grade III seizure incubation period / Grade IV seizure incubation period: mean ± SEM; for Grade IV seizure incubation period: mice not reaching Grade IV recorded as maximum 900 seconds; for Cases of deaths / Cases of Grade IV: of 10 mice; for Cases of Grade IV: 15 minutes observation
Procedure: Medicines: Pentylenetetrazol (PTZ), Retigabine, Protein BD-10.
Experiment grouping: • Model group; • Retigabine 60 mg/kg group; • Protein BD-10, 50 mg/kg group, 200 mg/kg group;
The drug was administered once in the afternoon the day before modeling, On the day of modeling, PTZ-65 mg/kg (modeling agent) was injected intraperitoneal 1 hour after the test drug was administered intragastrically, and the positive drug can be administered once half an hour before modeling. Continue to observe for 15 minutes after injection of PTZ.
Observation index: (1)Seizure situation: the time of seizures from Grade III to Grade VI; (2)Death situation
(§1) Seizure grade: Refer to Racine grading standard: Grade 0: No response; Grade I: manifested as twitching of facial muscles or the corners of the mouth; Grade II: can nod; Grade III: twitching of one limb; Grade IV: rigidity or body twitching; Grade V: generalized epilepsy (generalized tonic seizures).
Count the cases of seizures and deaths in each group of mice in the experiment; Grade III and IV incubation period. The incubation period of mice that have not attacked to Grade IV is recorded as the maximum of 900 seconds. Chi-square test was used for statistics of the number of cases. Calculate the mean and standard error of the incubation period. Use TTEST to compare the model group with other groups, and P<0.05 is considered as a significant difference.

[3] = system: PLO-induced epilepsy in mice; assay: Pilocarpine (PLO) induced convulsive epilepsy in mice; assay type: in vivo, ICR mice; parameters: mortality rate: unit not given here; conditions: for Grade IV seizure rate / mortality rate / Grade II seizure incubation period / Grade III seizure incubation period / Grade IV seizure incubation period / Cases of deaths / Cases of Grade IV: PLO 225 mg/kg i.p.; for Grade IV seizure rate / mortality rate: 10 mice; for Grade II seizure incubation period / Grade III seizure incubation period / Grade IV seizure incubation period: mean ± SEM; for Grade IV seizure incubation period: mice not reaching Grade IV recorded as maximum 1800 seconds; for Cases of deaths / Cases of Grade IV: of 10 mice; for Cases of Grade IV: 30 minutes observation
Procedure: Animals: male ICR mice; Drugs: Pilocarpine HCl (PLO, pilocarpine, pilocarpine hydrochloride), Diazepam (diazepam tablets), protein BD-10.
Experiment grouping: • Model group: • Diazepam 2 mg/kg group; • Protein BD-10, 50 mg/kg group, 200 mg/kg group.
The drug was administered once in the afternoon the day before modeling, PLO-225 mg/kg (modeling agent) was injected intraperitoneally 1 hour after the test drug was administered intragastrically on the day of modeling. And positive drug can be administered once 20 minutes before modeling. Observe for 30 minutes after PLO injection.
Observation indicators: (1)Seizure situation: the time of seizures from Grade II to Grade IV; (2)the time to death.
as §1
Count the number of Grade IV seizures and deaths in each group of mice in the experiment; Grade II, III and IV incubation period. […] Chi-square test was used for statistics of the number of cases. The mean value and standard error of the incubation period were calculated, and TTEST was used to compare the model group with other groups. P<0.05 was considered as a significant difference.

[4] = BD-10 50 mg/kg oral one hour before 0.6% acetic acid i.p.
[5] = BD-10 200 mg/kg oral one hour before 0.6% acetic acid i.p.

B1: BD-10: recombinant keratin with amino acid sequence SEQ ID NO:1, expressed in E. coli inclusion bodies, band around 55 kD (protein, listed as Bos taurus)
chain: MSCRSYRISPGYSVTRTFSSCSAVAPKTGSRCCITAAPYRGVSCYRGLTGFGSRSVSALGSCGPRIAVGGFRAGSCNRSFGYRSGGVGGLSPPCITTVSVNESLLTPLNLEIDPNAQCVKHEEKEQIKNLNSRFAAFIDKVRFLEQQNKLLETKWQFYQNQRCCESNLEPLFNGYIETLRREAEHVEADGGRLASELNHVQEVLEGYKKKYEEEVALRATAENEFVVLKKDVDCAYLRKSDLEANVEALVEESNFLKRLYDEEIQILNAHISDTSVIVKMDNSRDLNMDCVVAEIKAQYDDIASRSRAEAESWYRNKCEEMKATVIRHGETLRRTKEEINELNRIIQRLTAEIENAKCQRTKLEAAVAEAEQQGEAALNDARCKLAGLEEALQKAKQDMACLLKEYQEVMNSKLGLDIEIATYRRLLEGEEQRLCEGVGSVNVCVSSSRGGVTCGGLTYSTTAGRQIASGPVATGGSITVLAPDSCVPCQPRASSFSCGSSRSVRFA
Effect on writhing (in words) ([1]; BD-10 50 mg/kg and 200 mg/kg dose groups, vs model group P<0.05): can significantly reduce the number of writhing mice
Frequency of writhing [1, 4]: 22.7 ± 3.9 times
Writhing incubation period [1, 4]: 237.4 ± 44.8 s
Frequency of writhing [1, 5]: 19.8 ± 3.7 times
Writhing incubation period [1, 5]: 251.2 ± 43.3 s
Effect on number of writhing times (in words, summary) ([1]; BD-10, dose not stated): can significantly reduce the number of writhing times
Grade IV seizure rate ([2]; BD-10 50 mg/kg intragastric): 80%
mortality rate ([2]; BD-10 50 mg/kg intragastric): 0%
Grade III seizure incubation period ([2]; BD-10 50 mg/kg intragastric): 63 ± 2 s
Grade IV seizure incubation period ([2]; BD-10 50 mg/kg intragastric): 296 ± 106 s
Cases of deaths ([2]; BD-10 50 mg/kg intragastric): 0
Cases of Grade IV ([2]; BD-10 50 mg/kg intragastric): 8
Grade IV seizure rate ([2]; BD-10 200 mg/kg intragastric): 70%
mortality rate ([2]; BD-10 200 mg/kg intragastric): 0%
Grade III seizure incubation period ([2]; BD-10 200 mg/kg intragastric): 81 ± 9 s
Grade IV seizure incubation period ([2]; BD-10 200 mg/kg intragastric): 359 ± 120 s
Cases of deaths ([2]; BD-10 200 mg/kg intragastric): 0
Cases of Grade IV ([2]; BD-10 200 mg/kg intragastric): 7
Effect on incubation period of Grade IV epilepsy (in words) ([2]; BD-10, PTZ model, no statistical difference compared with the model group): has a tendency to extend the incubation period
Incubation period of epilepsy Grade III, comparison with model group (in words) ([3]; BD-10 50 mg/kg dose group, PLO model): statistically different from the model group
Grade IV seizure rate ([3]; BD-10 50 mg/kg intragastric): 90%
mortality rate ([3]; BD-10 50 mg/kg intragastric): 0
Grade II seizure incubation period ([3]; BD-10 50 mg/kg intragastric): 93 ± 4 s
Grade III seizure incubation period ([3]; BD-10 50 mg/kg intragastric): 166 ± 8 s
Grade IV seizure incubation period ([3]; BD-10 50 mg/kg intragastric): 871 ± 144 s
Cases of deaths ([3]; BD-10 50 mg/kg intragastric): 0
Cases of Grade IV ([3]; BD-10 50 mg/kg intragastric): 9
Grade IV seizure rate ([3]; BD-10 200 mg/kg intragastric): 70%
mortality rate ([3]; BD-10 200 mg/kg intragastric): 0
Grade II seizure incubation period ([3]; BD-10 200 mg/kg intragastric): 90 ± 6 s
Grade III seizure incubation period ([3]; BD-10 200 mg/kg intragastric): 151 ± 7 s
Grade IV seizure incubation period ([3]; BD-10 200 mg/kg intragastric): 918 ± 198 s
Cases of deaths ([3]; BD-10 200 mg/kg intragastric): 0
Cases of Grade IV ([3]; BD-10 200 mg/kg intragastric): 7
Effect on incubation period of Grade III epilepsy (in words, summary) ([3]; BD-10, dose not stated, PLO model): can significantly prolong the incubation period of Grade III epilepsy
